According to the supplement of paper PMC9876800:

Test system: peptide library, one residue held at a place counted from the S/T acceptor
Test: relative phosphorylation of the sub-library (ratio to the mean residue at this position); higher = residue favoured
Settings: human
Procedure, shortened: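 Purified recombinant kinases were reacted in 384-well plates with biotinylated degenerate peptide sub-libraries, each having one residue fixed at one position around a central Ser/Thr. The reaction mix contained 50 μM peptide plus 50 μM ATP spiked with γ-32P-ATP and ran for 90 min under kinase-specific conditions. Relative sub-library phosphorylation, taken from densitometry of phosphorimaged streptavidin membrane spots, is a ratio to the mean residue at that position.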

ATM, construct: Full length, sequence (Q13315 whole entry, looked up): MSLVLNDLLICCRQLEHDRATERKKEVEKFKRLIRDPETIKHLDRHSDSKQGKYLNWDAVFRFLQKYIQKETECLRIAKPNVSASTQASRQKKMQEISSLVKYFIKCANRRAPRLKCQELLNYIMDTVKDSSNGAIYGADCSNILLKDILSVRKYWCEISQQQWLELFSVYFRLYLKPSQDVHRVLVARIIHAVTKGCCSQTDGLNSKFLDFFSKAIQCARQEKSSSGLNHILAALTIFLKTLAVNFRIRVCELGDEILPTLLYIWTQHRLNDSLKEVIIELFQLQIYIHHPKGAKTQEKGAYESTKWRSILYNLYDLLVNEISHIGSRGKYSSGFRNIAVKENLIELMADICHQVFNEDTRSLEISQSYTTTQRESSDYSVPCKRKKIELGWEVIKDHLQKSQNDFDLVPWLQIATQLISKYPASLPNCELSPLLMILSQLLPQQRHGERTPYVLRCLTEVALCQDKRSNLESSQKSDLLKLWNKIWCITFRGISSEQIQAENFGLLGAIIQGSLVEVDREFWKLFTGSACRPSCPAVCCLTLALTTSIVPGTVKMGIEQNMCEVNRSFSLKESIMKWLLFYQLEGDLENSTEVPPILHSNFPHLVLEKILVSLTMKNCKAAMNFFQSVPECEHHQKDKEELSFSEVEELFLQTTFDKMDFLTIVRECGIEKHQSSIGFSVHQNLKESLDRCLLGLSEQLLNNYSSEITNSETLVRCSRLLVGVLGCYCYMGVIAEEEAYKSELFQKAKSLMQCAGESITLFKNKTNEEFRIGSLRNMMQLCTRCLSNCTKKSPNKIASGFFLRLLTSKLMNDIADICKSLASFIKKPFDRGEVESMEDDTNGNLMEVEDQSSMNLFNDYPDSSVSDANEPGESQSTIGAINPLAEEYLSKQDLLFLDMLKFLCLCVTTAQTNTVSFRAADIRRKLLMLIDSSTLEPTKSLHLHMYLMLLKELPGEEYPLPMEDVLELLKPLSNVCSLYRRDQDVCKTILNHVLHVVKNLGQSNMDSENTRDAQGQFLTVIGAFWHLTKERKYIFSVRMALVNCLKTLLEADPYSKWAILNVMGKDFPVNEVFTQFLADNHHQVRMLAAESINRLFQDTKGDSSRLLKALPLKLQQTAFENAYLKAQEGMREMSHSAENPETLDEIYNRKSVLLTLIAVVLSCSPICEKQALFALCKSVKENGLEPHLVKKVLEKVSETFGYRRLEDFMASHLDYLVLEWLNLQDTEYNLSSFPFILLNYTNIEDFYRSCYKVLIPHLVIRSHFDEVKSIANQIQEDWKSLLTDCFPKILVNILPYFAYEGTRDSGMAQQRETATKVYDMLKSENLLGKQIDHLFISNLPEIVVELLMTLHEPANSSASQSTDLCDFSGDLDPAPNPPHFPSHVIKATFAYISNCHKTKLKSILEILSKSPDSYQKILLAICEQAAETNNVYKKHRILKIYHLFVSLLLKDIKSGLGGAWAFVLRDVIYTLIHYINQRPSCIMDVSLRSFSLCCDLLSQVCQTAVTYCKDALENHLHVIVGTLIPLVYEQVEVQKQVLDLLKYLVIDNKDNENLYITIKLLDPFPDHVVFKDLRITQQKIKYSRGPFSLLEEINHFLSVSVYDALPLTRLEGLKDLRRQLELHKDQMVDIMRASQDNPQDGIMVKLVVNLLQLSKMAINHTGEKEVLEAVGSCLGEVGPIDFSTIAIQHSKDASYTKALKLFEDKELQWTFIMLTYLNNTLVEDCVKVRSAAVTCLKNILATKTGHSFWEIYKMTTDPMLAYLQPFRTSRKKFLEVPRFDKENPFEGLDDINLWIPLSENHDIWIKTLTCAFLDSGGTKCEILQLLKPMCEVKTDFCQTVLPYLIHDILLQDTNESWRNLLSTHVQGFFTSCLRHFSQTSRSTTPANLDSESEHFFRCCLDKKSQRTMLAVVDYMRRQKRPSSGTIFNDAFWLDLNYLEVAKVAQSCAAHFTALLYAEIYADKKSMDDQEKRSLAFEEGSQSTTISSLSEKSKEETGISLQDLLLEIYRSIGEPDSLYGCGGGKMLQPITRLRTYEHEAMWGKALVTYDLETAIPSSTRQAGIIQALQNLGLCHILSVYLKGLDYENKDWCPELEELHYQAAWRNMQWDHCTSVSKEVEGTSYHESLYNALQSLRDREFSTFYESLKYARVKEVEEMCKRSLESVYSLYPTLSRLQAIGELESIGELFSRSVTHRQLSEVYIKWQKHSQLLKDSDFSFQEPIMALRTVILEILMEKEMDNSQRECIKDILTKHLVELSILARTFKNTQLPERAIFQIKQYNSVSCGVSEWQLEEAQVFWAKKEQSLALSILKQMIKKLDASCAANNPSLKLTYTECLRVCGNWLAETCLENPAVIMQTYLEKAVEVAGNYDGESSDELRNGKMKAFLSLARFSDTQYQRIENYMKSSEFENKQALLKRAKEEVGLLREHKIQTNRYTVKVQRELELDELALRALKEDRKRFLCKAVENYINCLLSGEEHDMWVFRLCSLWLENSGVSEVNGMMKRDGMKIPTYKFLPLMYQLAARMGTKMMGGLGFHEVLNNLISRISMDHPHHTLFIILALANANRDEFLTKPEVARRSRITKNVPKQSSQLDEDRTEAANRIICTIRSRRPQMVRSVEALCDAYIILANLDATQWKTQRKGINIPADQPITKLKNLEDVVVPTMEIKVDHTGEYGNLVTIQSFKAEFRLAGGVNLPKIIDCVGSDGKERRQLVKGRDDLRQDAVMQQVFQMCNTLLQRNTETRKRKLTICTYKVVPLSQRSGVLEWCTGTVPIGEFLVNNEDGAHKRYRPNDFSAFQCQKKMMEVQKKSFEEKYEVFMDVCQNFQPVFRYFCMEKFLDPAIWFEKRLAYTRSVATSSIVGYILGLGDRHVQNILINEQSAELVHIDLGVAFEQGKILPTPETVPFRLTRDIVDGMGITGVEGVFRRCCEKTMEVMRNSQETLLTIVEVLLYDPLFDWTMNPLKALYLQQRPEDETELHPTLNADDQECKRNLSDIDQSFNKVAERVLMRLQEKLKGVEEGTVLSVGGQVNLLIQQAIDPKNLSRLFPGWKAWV
ACVR1, construct: aa175-end, sequence (Q04771 175-509, looked up): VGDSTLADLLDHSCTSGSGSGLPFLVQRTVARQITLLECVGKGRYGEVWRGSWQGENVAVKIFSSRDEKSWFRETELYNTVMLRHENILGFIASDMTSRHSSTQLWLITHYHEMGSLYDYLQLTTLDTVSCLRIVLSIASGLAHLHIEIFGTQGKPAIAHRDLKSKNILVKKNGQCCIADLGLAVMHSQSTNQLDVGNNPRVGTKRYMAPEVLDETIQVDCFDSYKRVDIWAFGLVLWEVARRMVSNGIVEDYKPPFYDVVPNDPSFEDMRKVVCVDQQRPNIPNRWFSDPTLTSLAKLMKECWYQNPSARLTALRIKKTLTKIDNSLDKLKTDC
PHKG1, construct: Full length, sequence (Q16816 whole entry, looked up): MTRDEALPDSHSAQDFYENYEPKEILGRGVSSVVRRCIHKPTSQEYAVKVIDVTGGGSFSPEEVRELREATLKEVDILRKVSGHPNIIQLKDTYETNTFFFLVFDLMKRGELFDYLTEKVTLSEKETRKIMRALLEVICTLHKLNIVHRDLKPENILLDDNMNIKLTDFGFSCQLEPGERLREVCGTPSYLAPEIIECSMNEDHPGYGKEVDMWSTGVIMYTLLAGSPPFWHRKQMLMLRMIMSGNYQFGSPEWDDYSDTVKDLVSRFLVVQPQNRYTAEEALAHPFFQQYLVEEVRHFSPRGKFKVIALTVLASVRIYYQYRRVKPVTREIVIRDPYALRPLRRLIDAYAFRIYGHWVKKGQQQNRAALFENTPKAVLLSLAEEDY

PHKG1, construct: Full length (from UniProt Q16816)
relative phosphorylation
Settings | at +1 | at +2 | at +3 | at +4 | at -1 | at -2 | at -3 | at -4 | at -5
A fixed | 0.524 | 0.708 | 0.898 | 0.937 | 0.837 | 1.11 | 0.736 | 0.926 | 1
D fixed | 0.175 | 0.2 | 0.276 | 0.343 | 0.512 | 0.624 | 0.356 | 0.439 | 0.436
E fixed | 0.197 | 0.139 | 0.272 | 0.238 | 0.411 | 1.49 | 0.376 | 0.573 | 0.367
F fixed | 3.7 | 1.16 | 1.29 | 1.13 | 1.06 | 0.838 | 0.53 | 0.865 | 1.18
G fixed | 0.491 | 0.721 | 1.06 | 1.02 | 0.741 | 1.13 | 0.824 | 1.15 | 0.937
H fixed | 0.712 | 1.35 | 1.3 | 1.18 | 1.24 | 0.984 | 1.12 | 1.11 | 1.1
I fixed | 1.5 | 0.516 | 0.891 | 0.75 | 0.611 | 0.363 | 0.278 | 0.728 | 0.791
K fixed | 0.777 | 2.04 | 1.37 | 2.01 | 1.44 | 1.12 | 2.55 | 1.56 | 1.46
L fixed | 1.17 | 0.544 | 1.06 | 0.956 | 0.927 | 0.576 | 0.376 | 0.823 | 1.34
M fixed | 1.65 | 0.694 | 0.957 | 0.886 | 1.18 | 0.969 | 0.458 | 0.957 | 0.824
N fixed | 0.513 | 0.739 | 0.786 | 0.866 | 1.32 | 1.28 | 0.721 | 0.764 | 0.664
P fixed | 0.292 | 0.721 | 1.09 | 1.29 | 0.999 | 0.702 | 0.926 | 1.17 | 1.01
Q fixed | 0.779 | 0.703 | 0.782 | 1.01 | 1.14 | 2.05 | 0.936 | 0.927 | 0.779
R fixed | 0.876 | 3.73 | 1.46 | 1.67 | 1.57 | 1.55 | 4.81 | 1.63 | 1.58
V fixed | 1.22 | 0.501 | 0.721 | 0.752 | 0.711 | 0.508 | 0.311 | 0.721 | 0.832
W fixed | 1.21 | 1.48 | 1.56 | 1.1 | 0.931 | 0.813 | 0.98 | 1.58 | 1.71
Y fixed | 1.22 | 1.06 | 1.24 | 0.862 | 1.38 | 0.875 | 0.71 | 1.08 | 0.99
pThr fixed | 0.419 | 0.25 | 0.393 | 0.356 | 0.535 | 0.529 | 0.621 | 0.846 | 0.68
pTyr fixed | 0.329 | 0.171 | 0.348 | 0.254 | 0.675 | 0.4 | 0.469 | 0.721 | 0.599

ACVR1, construct: aa175-end (from UniProt Q04771)
relative phosphorylation
Settings | at +1 | at +2 | at +3 | at +4 | at -1 | at -2 | at -3 | at -4 | at -5
A fixed | 0.713 | 0.98 | 0.912 | 0.81 | 0.74 | 0.525 | 0.897 | 0.886 | 1.13
D fixed | 1.5 | 1.84 | 1.47 | 1.69 | 1.48 | 1.93 | 1.51 | 1.64 | 1.22
E fixed | 4.11 | 1.99 | 1.81 | 1.76 | 1.68 | 6.6 | 1.78 | 1.44 | 1.15
F fixed | 0.752 | 0.713 | 0.962 | 1.01 | 0.857 | 0.467 | 0.944 | 0.88 | 1.08
G fixed | 0.737 | 1.39 | 0.909 | 0.972 | 0.515 | 0.715 | 1.22 | 1.15 | 1.12
H fixed | 0.787 | 1.15 | 0.932 | 0.918 | 1.04 | 0.55 | 1.03 | 0.953 | 1.03
I fixed | 0.87 | 0.581 | 0.762 | 0.804 | 0.985 | 0.511 | 0.885 | 0.946 | 0.896
K fixed | 0.382 | 0.709 | 0.53 | 0.676 | 0.572 | 0.406 | 0.651 | 0.77 | 0.938
L fixed | 0.728 | 0.616 | 0.856 | 0.738 | 1.35 | 0.678 | 0.899 | 0.958 | 0.861
M fixed | 0.795 | 0.683 | 0.97 | 0.955 | 1.62 | 0.89 | 1.02 | 0.94 | 0.964
N fixed | 0.771 | 0.927 | 1.04 | 1.01 | 1 | 0.714 | 1.12 | 0.803 | 0.948
P fixed | 0.375 | 1.02 | 1.1 | 0.976 | 0.49 | 0.404 | 0.937 | 0.872 | 0.91
Q fixed | 0.726 | 0.876 | 0.857 | 1.01 | 0.846 | 0.739 | 0.775 | 0.791 | 0.739
R fixed | 0.453 | 0.868 | 0.647 | 0.714 | 0.673 | 0.531 | 0.781 | 0.769 | 0.902
V fixed | 1.19 | 0.638 | 0.847 | 0.783 | 0.975 | 0.462 | 0.732 | 0.834 | 0.954
W fixed | 1.04 | 0.82 | 1.26 | 1.26 | 0.903 | 0.458 | 0.864 | 1.23 | 1.18
Y fixed | 1.07 | 1.19 | 1.14 | 0.927 | 1.27 | 0.429 | 0.972 | 1.15 | 0.997
pThr fixed | 2.36 | 1.57 | 1.05 | 1.59 | 1.04 | 1.8 | 1.41 | 1.05 | 1.06
pTyr fixed | 2.25 | 1.4 | 1.32 | 1.25 | 1.37 | 0.678 | 1.37 | 1.22 | 1.17

MKNK2, construct: Full length (from UniProt Q9HBH9)
relative phosphorylation
Settings | at +1 | at +2 | at +3 | at +4 | at -1 | at -2 | at -3 | at -4 | at -5
A fixed | 0.742 | 1 | 0.937 | 0.945 | 1.12 | 0.903 | 0.8 | 1.28 | 1.23
D fixed | 0.22 | 0.453 | 0.406 | 0.728 | 0.37 | 0.24 | 0.239 | 0.284 | 0.221
E fixed | 0.385 | 0.465 | 0.433 | 0.79 | 0.369 | 0.24 | 0.449 | 0.359 | 0.272
F fixed | 1.36 | 0.807 | 0.936 | 0.895 | 0.555 | 0.439 | 0.453 | 0.721 | 0.949
G fixed | 0.506 | 0.739 | 1.58 | 1.08 | 1.04 | 0.958 | 1.53 | 1.54 | 1.05
H fixed | 1.06 | 1.71 | 1.32 | 1.22 | 1.24 | 0.874 | 1.07 | 1.02 | 0.898
I fixed | 1.35 | 0.818 | 0.664 | 0.756 | 0.417 | 0.368 | 0.365 | 0.716 | 1.11
K fixed | 1.02 | 0.875 | 1.89 | 1.62 | 3.14 | 2.06 | 3.1 | 1.75 | 1.4
L fixed | 1.17 | 0.781 | 0.923 | 0.745 | 0.741 | 0.421 | 0.439 | 0.909 | 1.47
M fixed | 1.73 | 0.915 | 0.942 | 0.849 | 0.887 | 0.427 | 0.617 | 0.898 | 0.976
N fixed | 0.667 | 0.797 | 0.76 | 0.94 | 0.96 | 0.956 | 0.847 | 0.911 | 0.648
P fixed | 0.24 | 0.44 | 0.931 | 1.21 | 0.284 | 0.571 | 1.48 | 1.58 | 1.49
Q fixed | 1.59 | 0.904 | 1.1 | 1.13 | 1.2 | 0.835 | 0.957 | 0.884 | 0.767
R fixed | 1.19 | 1.29 | 1.34 | 1.05 | 2.77 | 6.1 | 3.21 | 1.79 | 1.23
V fixed | 1.19 | 0.981 | 0.703 | 0.861 | 0.566 | 0.5 | 0.401 | 0.749 | 1.47
W fixed | 1.17 | 1.39 | 0.974 | 1.16 | 0.531 | 0.491 | 0.475 | 0.713 | 0.876
Y fixed | 1.41 | 2.63 | 1.15 | 1.03 | 0.818 | 0.615 | 0.574 | 0.899 | 0.942
pThr fixed | 0.649 | 0.492 | 0.516 | 0.736 | 0.203 | 0.304 | 0.47 | 0.562 | 0.572
pTyr fixed | 0.783 | 0.714 | 0.604 | 0.782 | 0.285 | 0.356 | 0.568 | 0.647 | 0.642

ATM, construct: Full length (from UniProt Q13315)
relative phosphorylation
Settings | at +1 | at +2 | at +3 | at +4 | at -1 | at -2 | at -3 | at -4 | at -5
A fixed | 0.429 | 0.858 | 0.748 | 0.776 | 0.759 | 1.18 | 0.922 | 0.959 | 1.1
D fixed | 0.42 | 2.02 | 1.28 | 1.27 | 2.27 | 1.56 | 1.26 | 1.3 | 1.11
E fixed | 0.85 | 2.16 | 1.45 | 1.45 | 1.62 | 1.77 | 1.52 | 1.5 | 1.08
F fixed | 0.701 | 0.658 | 1.5 | 1.23 | 1.1 | 0.868 | 1.14 | 1.2 | 1.4
G fixed | 0.361 | 0.756 | 0.691 | 0.922 | 1.06 | 0.93 | 0.848 | 0.995 | 0.987
H fixed | 0.38 | 0.918 | 0.67 | 0.84 | 1.09 | 0.936 | 0.936 | 0.912 | 0.879
I fixed | 0.594 | 0.872 | 1.03 | 1.08 | 0.405 | 0.685 | 0.814 | 0.906 | 1.06
K fixed | 0.384 | 0.649 | 0.5 | 0.499 | 0.376 | 0.696 | 0.681 | 0.721 | 0.662
L fixed | 0.621 | 0.77 | 1.59 | 1.11 | 1.56 | 0.692 | 0.867 | 0.96 | 0.987
M fixed | 0.672 | 0.787 | 1.26 | 1.25 | 1.05 | 0.85 | 1.18 | 0.995 | 0.971
N fixed | 0.748 | 1.21 | 0.742 | 0.791 | 1.83 | 1.24 | 0.842 | 0.789 | 0.859
P fixed | 0.448 | 1.1 | 0.742 | 0.779 | 0.412 | 0.906 | 0.643 | 0.819 | 0.784
Q fixed | 8.34 | 1.1 | 0.989 | 0.787 | 0.731 | 1.28 | 0.792 | 0.733 | 0.617
R fixed | 0.648 | 0.839 | 0.545 | 0.577 | 0.518 | 1.13 | 1.66 | 0.865 | 0.894
V fixed | 0.521 | 1.01 | 0.875 | 0.873 | 0.387 | 0.716 | 0.671 | 0.818 | 1.1
W fixed | 0.421 | 0.514 | 1.31 | 1.51 | 0.525 | 0.736 | 1.06 | 1.27 | 1.26
Y fixed | 0.466 | 0.798 | 1.08 | 1.25 | 1.31 | 0.823 | 1.17 | 1.25 | 1.25
pThr fixed | 0.577 | 1.47 | 0.933 | 1.49 | 0.748 | 1.37 | 1.15 | 1.21 | 0.84
pTyr fixed | 0.468 | 1.85 | 1.26 | 2.74 | 3.86 | 1.68 | 1.7 | 1.23 | 1.05
